From the supplement of paper PMC9170038

Test system: MS2 coat protein
Assay: apparent KD of MS2 coat protein; designed switch direction (-1 OFF switch, 1 ON switch): 1; higher = weaker reporter binding
How it was run: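 Designed RNA switches with common flanks were transcribed on Illumina chips by stalled E. coli RNA polymerase and titrated with SNAP-549-labelled MS2 coat protein, from 0.7 or 1.5 nM doubling to 3 µM, in Tris-HCl pH 7.5 buffer with KCl, MgCl2, BSA, DTT, tRNA and Tween-20. Steps lasted 0.8–1.5 h (lowest) to 10–20 min (highest). Titrations ran without input, with 200 uM small-molecule ligand, or with an oligonucleotide input. Normalised cluster fluorescence was curve-fitted, and apparent KD is the per-design median over clusters.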

[1] = input ligand: microRNA oligo, concentration not stated
[2] = Eterna round: R95, input ligand: FMN 200 uM
[3] = Eterna round: R95, input ligand: microRNA oligo, concentration not stated
[4] = Eterna round: R95, input ligand: none

Row | Sequence | apparent KD of MS2 coat protein [1] [nM] | apparent KD of MS2 coat protein (input ligand: FMN 200 uM) [nM] | apparent KD of MS2 coat protein (input ligand: none) [nM] | apparent KD of MS2 coat protein [2] [nM] | apparent KD of MS2 coat protein [3] [nM] | apparent KD of MS2 coat protein [4] [nM]
1 | ACAUGAGAGAUAGGAUAUCUUGUACCUACAUGUGACAUGAGGAUCACCCAUGUGGUAAGUAUGAGGGAGAAGGGUCAGAUAUGU [Equivalence 45 - Jieux - Same State NG 2] (Eterna round: R96, puzzle: Same State NG 2) | 42.7 |  |  |  |  | 
2 | UUGCGGAAUUAAGGAUAUUGAGUACAUAUGUUUAACAUGAGGAUCACCCAUGUGGGUUGCGGUAUCGAGAAGGUAAAUUACUAC [salish99_SSNG2_r04_802] (Eterna round: R96, puzzle: Same State NG 2) | 88.8 | 130 | 105 |  |  | 
3 | CACAAUCUAUCUGAGGAUAUCAUGAAAAAAACAUGAGGAUCACCCAUGUGCAGGAAAACUGCAUAUGAGAAGGCAGAUAGAUUGC [salish99_SS2_r3_013] (puzzle: Same State 2) |  |  |  | 27.9 | 460 | 943
4 | ACAUGAGAAAGAGGAUAUUUUGUACCUACAUGUGACAUGAGGAUCACCCAUGUGGUAAGUAUGAGAAAGAAGGCUUAGAUAUGU [Equivalence 13 - Jieux - Same State NG 2] (Eterna round: R96, puzzle: Same State NG 2) | 43.1 | 20.6 | 61.7 |  |  | 
5 | GCUCGAUGAGCGGUUUACAUGAGGAUCACCCAUGUAAAUGGGCAGGAUAUUUACGUGCUUUGUGUAGAGAAGGGCCCAUCGAGC [SameState NG3 #75] (Eterna round: R96, puzzle: Same State NG 3) | 47.4 | 18.1 | 112 |  |  | 
6 | GACGAGGUGGGAGGAUAUAGCCCGUGGACUGUACCCGAACAUGAGGAUCACCCAUGUCGAGAAACCUAGAAGGCCUACAACGUA [Eternabot solution 11] (Eterna round: R96, puzzle: Same State NG 2) | 10.8 | 16.8 | 38.4 |  |  | 
7 | AUUAAACAUGAGGAUCACCCAUGUAUUAUUAUGGGAGGAUAUGCGAAUUUAAUUAAUUAAGCAGAAGGCCUAAUUA [Mat - Same State 1 - D102] (puzzle: Same State 1) |  |  |  | 18.7 | 98.3 | 141
8 | AGCUAUCGAAAACGAUAGCAAAAGCAUGUACAUGAGGAUCACCCAUGUCAUGUACAAGCUUUUUGCUCGUUUUAAAA [Zipper 23 - 15] (puzzle: Sensor for hsa-mir-208a) |  |  |  | 20.1 | 37.8 | 52.5
9 | GAUUCACAUGAGGAUCACCCAUGUCGUUUUAUGGGAGGAUAUACGUGGACCGUAGUCCGCGUAGAAGGCCUAAUUG [JL-ss1-3.24 janelle mod] (puzzle: Same State 1) |  |  |  |  | 92.1 | 
10 | CUGCUACAUGAGGAUCACCCAUGUUGGAGUGAUGCAGGAUAUGUGGGACCAGAAGAUGAAACAGAAGGGCAAAGAA [JR_SS!_Sub005] (puzzle: Same State 1) |  |  |  | 98.4 | 119 | 97.6
11 | UAUGAAUUGCAAGGAUAUUGAUAACAUGAGGAUCACCCAUGUAAUUGAUCGAGUUAGAUCAGUUACAAGAAGGUGCUAUUGUUU [JR_SSNG2_Sub037] (Eterna round: R96, puzzle: Same State NG 2) | 33.2 | 1810 | 70 |  |  | 
12 | AAAAAACAUGAGGAUCACCCAUGUCUUUUGACAUGAGGAUAUGUACAGACUUCGGUCUGUACAGAAGGCAUGUAAA [SS1 - 1028] (Eterna round: R96, puzzle: Same State 1) | 336 |  |  |  |  | 
13 | GUGAAGAAUUAAGGAUAUUGAAUACAUAUGUUUAACAUGAGGAUCACCCAUGUGGGUUGCGGUAUCGAGAAGGUAAAUUACUGG [salish99_SSNG2_r04_032] (Eterna round: R96, puzzle: Same State NG 2) | 81.7 |  |  |  |  | 
14 | AAUUAAUUAAUACAUGAGGAUCACCCAUGUAAUUAUUAGAUCAAGGAUAUCAGCUCGAUUAGAGCUGAGAAGGUGAUCACAUGU [SSNG3/18-A2] (Eterna round: R96, puzzle: Same State NG 3) | 282 |  |  |  |  | 
15 | GGUCCAGCCUGAGCUGGACAAAAGCAUGUACAUGAGGAUCACCCAUGUCAUGUACAAGCUUUUUGCUCGUCAUAAUU [Mat - hsa-mir-208a - 100] (puzzle: Sensor for hsa-mir-208a) |  |  |  | 495 | 16 | 489
16 | GCCAGUGCGAAACUCACAUGAGGAUCACCCAUGUGCGUUGAGUAGGAUAUCCGGCUACUCGAGGCGGAGAAGGACUGGGUACUG [Eternabot solution 14] (Eterna round: R96, puzzle: Same State NG 3) | 12.3 | 17.4 | 17.3 |  |  | 
17 | GCUAGAAUAAAAGCCAACAUGAGGAUCACCCAUGUAUGUUGGCAGGAUAUCGUUUGCAAAGCAAACGAGAAGGGCCAUACUAGC [Mat - Same State NG 3 - JL Mod - D23] (Eterna round: R96, puzzle: Same State NG 3) | 109 | 45.1 | 117 |  |  | 
18 | CGUAGGAUAUGCAGAGGAUCACCCUGUAGAAGGACGAUUACACAGGAUAUGCAGAGGAUCACCCUGUAGAAGGGUGACUAAUCU [pwkr ssNG3 DX 2xF5 +2xFMN.3] (Eterna round: R96, puzzle: Same State NG 3) | 34.4 | 25.8 | 55.7 |  |  | 
19 | UCGAGCGUACUUGCAGACAUGAGGAUCACCCAUGUAAAUGGGAAGGAUAUGGUACCGUUUCGGUACCAGAAGGUCCUAAGUGAU [salish99_SSNG3_r04_302] (Eterna round: R96, puzzle: Same State NG 3) | 465 | 574 | 1200 |  |  | 
20 | AGAGAAGAAGCUGAGGAUAUCGUAAGGAGGACAUGAGGAUCACCCAUGUGUGUGGAAUUGGAGGACGAGAAGGCAGAGGAGUGGG [JR_SS2_Sub056] (puzzle: Same State 2) |  |  |  | 25.1 | 28.3 | 27.8
21 | AUAAGUUCGAUGCUCGUCUCUCCGUACAAACAUGAGGAUCACCCAUGUGAUCGAGAAGUAGCCCGAUCAGUAUGGCC [Soainge] (puzzle: Sensor for hsa-mir-208a) |  |  |  | 30.2 | 27 | 35.3
22 | UAAAUACAUGAGGAUCACCCAUGUCAAAAGACAUGAGGAUAUGUACAGACUUCGGUCUGUACAGAAGGCAUGAAAA [salish99_ss1_r3_095] (Eterna round: R96, puzzle: Same State 1) | 397 |  |  |  |  | 
